Reference: patent US20040110922A1

Columns and labels:
Assay in all cases: cell-based or functional assay
[1] = target: gp120 of HIV-1 IIIB (laboratory strain, on virus) (HIV-1 IIIB)
[2] = target: gp120 of HIV-1 MN (laboratory strain, on virus) (HIV-1 MN)
[3] = target: gp120 of HIV-1 clade B primary isolate Bal, on virus (HIV-1 Bal)
[4] = target: gp120 of HIV-1 clade B primary isolate GV, on virus (HIV-1 GV)
[5] = target: gp120 of HIV-1 clade B primary isolate JR-FL, on virus (HIV-1 JR-FL)
[6] = target: gp120 of HIV-1 clade B primary isolate P15, on virus (HIV-1 P15)
[7] = target: gp120 of HIV-1 clade B primary isolate PVO, on virus (HIV-1 PVO)
[8] = target: gp120 of HIV-1 clade C primary isolate DU151 (R5), on virus (HIV-1 DU151)
[9] = target: gp120 of HIV-1 clade C primary isolate DU179 (R5/X4), on virus (HIV-1 DU179)
[10] = target: gp120 of HIV-1 clade C primary isolate DU368 (R5), on virus (HIV-1 DU368)
[11] = target: gp120 of HIV-1 clade C primary isolate DU422 (R5), on virus (HIV-1 DU422)

For “product of clone 611-2, CD4(V1 + V2)-hIgG1 (from UniProt P01730 26-203) (Fc fusion)”, the ID50 (nM), protection of MT-2 cells from virus-induced cell killing [1] was 0.79 nM, the ID50 (nM), protection of MT-2 cells from virus-induced cell killing [2] was < 0.41 nM and the % reduction in p24 in PMBC at 890 nM [3] was 100%. For the same substance, the ID90 (nM), 90% reduction of p24 production in PMBC [3] was 5.3 nM, the % reduction in p24 in PMBC at 890 nM [4] was 88% and the % reduction in p24 in PMBC at 890 nM [5] was 100%. The ID90 (nM), 90% reduction of p24 production in PMBC [5] was 8.2 nM, the % reduction in p24 in PMBC at 890 nM [6] was 94% and the % reduction in p24 in PMBC at 890 nM [7] was 96%. For the same substance, the % reduction in p24 in PMBC at 890 nM [8] was 63%, the % reduction in p24 in PMBC at 890 nM [9] was 78% and the % reduction in p24 in PMBC at 890 nM [10] was 53%. For the same substance, the % reduction in p24 in PMBC at 890 nM [11] was 9%.
